Assay results: patent publication US20180289790A1 (Bristol-Myers Squibb, published 2018)
Where a chain is given by its changes, count along the chain named. In names and notes the source's numbering stands. One block for each molecule: values may come before it.

Tests used:
hCD16a-V158 (human) = hCD16a-V158 (human) (UniProt P08637); experiment: method not stated (Table 9, 'µM Kd')
hCD16a-F158 (human) = hCD16a-F158 (human) (UniProt P08637); experiment: method not stated (Table 9, 'µM Kd')
hCD32a-R131 (human) = hCD32a-R131 (human) (UniProt P12318); experiment: method not stated (Table 9, 'µM Kd')
Chain of hCD32a-R131 (human) (P12318 36-218 H167R limits assumed): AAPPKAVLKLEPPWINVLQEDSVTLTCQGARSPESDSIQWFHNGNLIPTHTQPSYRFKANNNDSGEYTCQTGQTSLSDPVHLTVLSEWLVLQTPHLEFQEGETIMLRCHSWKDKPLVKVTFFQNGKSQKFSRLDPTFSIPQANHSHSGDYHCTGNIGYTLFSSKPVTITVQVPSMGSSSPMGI

hCD32a-H131 (human) = hCD32a-H131 (human) (UniProt P12318); experiment: method not stated (Table 9, 'µM Kd')
Chain of hCD32a-H131 (human) (P12318 36-218 limits assumed): as the sequence (P12318 36-218 H167R limits assumed) above, with R132H counted along it

hCD64 (human) = hCD64 (human) (UniProt P12314); experiment: method not stated (Table 9, 'µM Kd')
Chain of hCD64 (human) (P12314 16-288 limits assumed): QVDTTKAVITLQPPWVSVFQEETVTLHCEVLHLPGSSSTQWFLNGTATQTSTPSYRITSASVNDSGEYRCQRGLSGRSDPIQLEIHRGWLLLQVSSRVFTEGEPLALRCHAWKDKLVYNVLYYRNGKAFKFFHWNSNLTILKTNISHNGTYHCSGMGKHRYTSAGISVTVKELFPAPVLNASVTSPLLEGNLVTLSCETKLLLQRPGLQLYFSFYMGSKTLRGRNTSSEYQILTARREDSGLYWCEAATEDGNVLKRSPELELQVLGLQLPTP

hCD32b (human) = hCD32b (human) (UniProt P31994); experiment: method not stated (Table 9, 'µM Kd')
Chain of hCD32b (human) (P31994 43-217 limits assumed): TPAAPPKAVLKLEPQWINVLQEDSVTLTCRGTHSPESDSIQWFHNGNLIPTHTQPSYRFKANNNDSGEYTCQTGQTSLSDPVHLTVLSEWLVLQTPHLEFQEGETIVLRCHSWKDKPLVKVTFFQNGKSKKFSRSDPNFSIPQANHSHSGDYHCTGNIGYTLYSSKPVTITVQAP

[1] = molecular target: human ICOS (huICOS), on activated human CD4+ T cells (human) (UniProt Q9Y6W8); experiment: cell-based or functional assay
huICOS/Fc [2] = molecular target: T1, huICOS/Fc (human, UniProt Q9Y6W8 21-140); experiment: SPR binning: reference antibody on chip, test antibody pre-incubated with huICOS/Fc
T1 construct: also called huICOS polypeptide construct; human ICOS antigen; not shown: Fc part
T1 sequence: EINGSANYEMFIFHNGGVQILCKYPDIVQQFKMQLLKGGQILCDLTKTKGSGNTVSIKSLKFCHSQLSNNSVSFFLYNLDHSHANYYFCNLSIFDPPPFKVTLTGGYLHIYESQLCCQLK

[3] = molecular target: T2, human ICOS Fc (R&D Systems, 169-CS-050) (human, UniProt Q9Y6W8 21-140); experiment: SPR (Biacore T200), 37 °C, human ICOS Fc captured by anti-hFc on a CM4 chip, Fab as analyte, 1:1 Langmuir model
T2 construct: Bought construct; also called human ICOS with an Fc tag; not shown: Fc tag
T2 sequence: T1 sequence

huICOS/Fc [4] = molecular target: T1, huICOS/Fc; experiment: HDX-MS, ICOS-Fc mixed with mAb at 1:1 ratio
Description: ICOS-Fc was mixed with mAbs at 1:1 ratio and HDX-MS was run for one minute, 10 minutes, 4 hours in duplicate.

Chain of hCD16a-F158 (human) (P08637 17-208 limits assumed): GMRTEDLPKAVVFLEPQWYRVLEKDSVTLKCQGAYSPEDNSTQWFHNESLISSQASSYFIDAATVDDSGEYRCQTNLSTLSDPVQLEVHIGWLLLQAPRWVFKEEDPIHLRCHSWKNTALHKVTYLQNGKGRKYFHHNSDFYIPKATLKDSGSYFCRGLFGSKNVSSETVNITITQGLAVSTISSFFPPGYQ
Chain of hCD16a-V158 (human) (P08637 17-208 F176V limits assumed): as the sequence (P08637 17-208 limits assumed) above, with F160V counted along it

Molecule: human IgG1f (wild type), as in Table 9 (antibody)
Kd (hCD16a-V158 (human)): 97 µM
Kd (hCD16a-F158 (human)): 200 µM
Kd (hCD32a-R131 (human)): 960 µM
Kd (hCD32a-H131 (human)): 530 µM
Kd (hCD64 (human)): 0.2 µM
Kd (hCD32b (human)): 3400 µM

Molecule: ICOS.4 (chimeric antibody with the variable regions of hamster antibody C398.4A and human IgG1f constant regions)
EC50 of interferon-gamma secretion, CHO-OKT3-CD32 / CD4+CD25- T cell co-culture [1]: 0.018 µg/mL

B1: IgG-2644 (antibody, V domains shown)
VH: EVQLLESGGGLVQPGGSLRLSCEASGFIFKYYAMSWVRQAPGKGLEWVSGISGSGGSTYYADSVKGRFTISRDNSKHTLYLQMNSLRAEDTAVYYCAKDGDFDWIHYYYGMDVWGQGTTVTVSS
VL: AIQLTQSPSSLSASVGDRVTITCRASQGISSALAWYQQKPGKAPKLLIYDASSLESGVPSRFSGSGSGTDFTLTISSLQPEDFATYYCQQFNSYPHTFGGGTKVEIKR
notes: Human antibody from mRNA display, cloned into IgG expression vectors
binding result (huICOS/Fc [2]): binds

B4: 3E8 (antibody, V domains shown)
VH: QVQLVESGGGVVQPGMSLRLSCAASGFTFSTYGMQWVRQAPGKGLEWVTVIWHDGSHKDYADSVKGRFTISRDNSKNTMYLQMNSLRAEDTAVYYCARDRQTGEGYFDFWGQGTLVTVSS
VL: DIQMTQSPSSLSASVGDRVTITCRASQGISSWLAWYQQKPEKAPKSLIYAASSLQSGVPSRFSGSGSGTDFTLTISSLQPEDFATYYCQQYNSYPYTFGQGTKLEIK
notes: Fully human hybridoma antibody
binding result (huICOS/Fc [2]): binds

The next lines start with the values.

Kd (hCD32a-R131 (human)): 31 µM
Kd (hCD32a-H131 (human)): 650 µM
Kd (hCD64 (human)): 0.2 µM
Kd (hCD32b (human)): 87 µM
Molecule: human IgG1f-S267E, as in Table 9 (antibody)

Kd [3]: 0.052 to 0.065 µM
B2: ICOS.33 IgG1f S267E Fab fragment (Lot PC-1804-04) (Fab, V domains shown)
VH: EVQLVESGGGLVKPGGSLRLSCAASGFTFSDYFMHWVRQAPGKGLEWVGVIDTKSFNYATYYSDLVKGRFTISRDDSKNTLYLQMNSLKTEDTAVYYCTATIAVPYYFDYWGQGTLVTVSS
VL: DIQMTQSPSSLSASVGDRVTITCQASQDISNYLSWYQQKPGKAPKLLIYYTNLLAEGVPSRFSGSGSGTDFTFTISSLQPEDIATYYCQQYYNYRTFGPGTKVDIKR
notes: Fab of m1; also called Fab fragment of ICOS.33 IgG1f S267E

binding result (huICOS/Fc [2]): binds
B3: 17C4 (antibody, V domains shown)
VH: QVTLRESGPALVKPTQTLTLTCTFSGFSLSTSGMCVSWIRQPPGKALEWLALIDWDDDKFYSTSLKTRLTISKDTSKNQVVLTMTNMDPVDTATYYCARMSTPTYYGLDVWGQGTTVTVSS
VL: B4 VL with Y96L, Q100G, L104V
notes: as for B4

binding result (huICOS/Fc [4]): binds
B5: 9D5 (antibody, V domains shown)
VH: QITLKESGPTLVKPTQTLTLTCTFSGFSLGTSGLGVGWIRQPPGKALEWLAFIYWDDDKRYSPSLKSRLTITKDTSKNQVVLTMTNMDPVDTATYYCAHRRGFFDYWGQGTLVTVSS
VL: B4 VL with Y96L, Q100G, L104V
notes: as for B4
